Paper PMC4642857

Target: microtubule polymerized from porcine brain tubulin, stabilized with paclitaxel (porcine)
Experiment: co-sedimentation

purified γ stalk–LC1 complex (from UniProt Q9XHH2 1-198)
Bmax/Kd: 0.053 | Kd: 19 µM
